B1: anti-IL-26 mouse monoclonal antibody clone 142-84-B1 (antibody, V domains shown)
VH: QVQLQQSGAELVRPGASVTLSCKASGFTFPDYEIHWVRQTPVHGLEWIGGIDPETGDTANNQKFKGKATLTADTSSSTAYMELRSLTSEDSAVYYCTRFYGSFDYWDQGTTLTVSS
VL: NIMMTQSPSSLAVSAGEKVTLSCKSSQSVLYSSNQKNYLAWYQQKPGQSPKLLIYWASTRESGVPDRFTGSGSGTDFTLTISSVQAEDLAVYYCHQYLSSYTFGGGTKLEIK
notes: Mouse hybridoma antibody, IgG1; also called clone 84
B2: recombinant human IL-26 (ligand, UniProt Q9NPH9 22-171, looked up)
chain: KHKQSSFTKSCYPRGTLSQAVDALYIKAAWLKATIPEDRIKNIRLLKKKTKKQFMKNCQFQEQLLSFFMEDVFGQLQLQGCKKIRFVEDFHSLRQKLSHCISCASSAREMKSITRMKRIFYRIGNKGIYKAISELDILLSWIKKLLESSQ
notes: In some functional rows the IL-26 is natural IL-26 in TH17 cell supernatants, as said in the readout; also called rhIL-26; AK155

What was measured:
recombinant human IL-26 = biological target: B2; experiment: ELISA screen of hybridomas
[1] = biological target: the molecule itself; experiment: small angle X-ray scattering (SAXS) of rhIL-26, self-association
Procedure: IL-26 was suspended in 16 mM sodium phosphate buffer, pH 6.5, 560 mM NaCl, 8% glycerol, 2 mM β-mercaptoethanol and concentrated to 1.1 mg/ml. Data were recorded at the ALS, Berkeley, Calif., beamline 12.3.1. (SIBYLS) at 10° C. using a wavelength of 1 A, for values of the momentum transfer vector q=(4π sin θ)/λ between 0.01 and 0.32 Å-1. The same sample was sequentially exposed to X-rays for 0.5s, 1s and 5s. Samples containing buffer only were measured before and after protein samples. The buffer contributions were subtracted from protein scattering data using the ogre new software program available at SIBYLS. Data were not affected by radiation damage as indicated by a constant Rg of the Guinier region for subsequent sample exposures. A combined SAXS pattern was obtained through scaling and merging selected regions of buffer-subtracted scattering pattern for the 0.5s, 1s and 5s exposures. Data between q=0.01 and 0.13 Å-1 were analyzed using PRIMUS, SASREF and DAMMIF of the ATSAS software package.

B1
binding result (recombinant human IL-26): binds

B2
binding result [1]: binds
